# Where a SMILES comes first, the peptide text is derived from it. Where no end group is shown, it is not given here. [ ]: non-standard residue; d: D form. pY = N[C@@H](Cc1ccc(OP(=O)(O)O)cc1)C(=O)O
# Columns and labels:
# murine splenocytes [1] = assay: Uptake of FITC-conjugated PTD4 peptide by splenocytes (flow cytometry); assay type: cell-based; conditions: for Percent Maximum (±SEM), peptide uptake: FITC-PTD4 100 μM, normalized to 100%
# Protocol: The ability of the PTD4 protein transduction domain to enter cells was confirmed by incubating murine splenocytes with FITC-conjugated PTD4 peptide (FITC-PTD4). Splenocytes were incubated with FITC-PTD4 for various times (30 minutes to 24 hours), subsequently washed and incubated with trypsin to remove surface bound peptide, and analyzed by flow cytometry. Data was normalized to 100%. Half-maximal peptide uptake occurred at 1 hour and plateaued after 4-6 hours (Table 1).
# To monitor peptide uptake, splenocytes in Dulbecco's Modified Eagle Medium (DMEM)/10% fetal bovine serum (FBS) were incubated continuously with FITC-conjugated PTD4 peptide (100 μM) for 30 minutes to 24 hours. At each time point, surface bound peptide was removed by washing cells twice with phosphate-buffered saline (PBS) and then incubating cells with trypsin for five minutes. Ten thousand cells were subsequently analyzed by flow cytometry. To monitor the half-life of intracellular peptide (in the absence of uptake), splenocytes in DMEM/10% FBS were incubated with FITC-conjugated PTD4 peptide (100 μM) for four hours, after which they were washed twice with PBS and incubated with trypsin for five minutes. Splenocytes were returned to DMEM/10% FBS and intracellular localization of peptide monitored over time by flow cytometry.
# murine splenocytes [2] = assay type: cell-based; conditions: mouse
# Protocol: (§1) To determine the half-life of the intracellular PTD4 peptide in the absence of further uptake, splenocytes were incubated with the FITC-PTD4 peptide for 4 hours, washed and trypsinized, and placed back into complete medium after which intracellular localization of the peptide was monitored over time by flow cytometry. […] To monitor stability of the murine-specific PTD4-STAT-6 peptide (STAT-6-IP; Tyr-Ala-Arg-Ala-Ala-Ala-Arg-Gln-Ala-Arg-Ala-Gly-Arg-Gly-Tyr*-Val-Ser-Thr-Thr; SEQ ID NO:7) in murine splenocytes, cells were incubated with the STAT-6-IP for four hours, after which they were washed and trypsinized. The presence of intracellular STAT-6-IP was monitored by western blot analysis of cell lysates harvested at different time points and resolved by SDS-PAGE. The STAT-6-IP was visualized using anti-phosphoSTAT-6 antibody and data normalized to 100% (Table 2).
# To monitor peptide uptake, splenocytes in Dulbecco's Modified Eagle Medium (DMEM)/10% fetal bovine serum (FBS) were incubated continuously with FITC-conjugated PTD4 peptide (100 μM) for 30 minutes to 24 hours. […] Ten thousand cells were subsequently analyzed by flow cytometry. […] Splenocytes were returned to DMEM/10% FBS and intracellular localization of peptide monitored over time by flow cytometry.
# murine splenocytes [3] = assay: Stability of intracellular STAT-6-IP in splenocytes (western blot, anti-phosphoSTAT-6 antibody); assay type: cell-based; conditions: for Percent Maximum (±STD), intracellular STAT-6-IP: normalized to 100%
# Protocol: as §1
# (§2) To monitor stability of the STAT-6-IP in murine splenocytes, cells in DMEM/10% FBS were incubated with the STAT-6-IP (100 μM) for four hours, after which they were washed twice with PBS and trypsinized. Splenocytes were then incubated with soybean trypsin inhibitor (0.5 mg/mL in 10 mM sodium tetraborate) for 5 minutes. The cells were washed again once in PBS and subsequently placed back into complete medium. At different time points, cells were harvested and lysed in tricine sample buffer (100 mM Tris-HCl, pH 6.8, 24% glycerol, 8% SDS, 200 mM DTT). Lysates were clarified and equal concentrations (20 μg/lane) resolved by SDS-PAGE on 18% tris-tricine gels, after which proteins were transferred to PVDF membrane. For western immunoblot analysis, membranes were blocked for one hour in TBST (10 mM Tris-Cl pH 7.4, 2.5 mM EDTA, 150 mM NaCl, 0.1% TWEEN™-20) containing 0.25% gelatin (bloom 275) at room temperature. Blots were incubated with anti-phosphoSTAT-6 antibodies overnight at 4° C. followed by horseradish peroxidase-conjugated bovine anti-rabbit secondary antibody for one hour. Immunoreactive bands were detected by enhanced chemiluminescence, ECLT™ (Amersham Life Sciences, San Francisco, Calif.), visualized and quantified on a FLUORCHEM™ 8000 Imaging System using ALPHAEASE™ software (Alpha Innotech, San Leandro, Calif.).
# [4] = as above; assay type: cell-based, murine; conditions: mouse, murine splenocytes (intracellular peptide after loading); 4 hours loading at 100 μM, washed, trypsinized
# Protocol: as §1, §2
Molecule,"Percent Maximum (±SEM), peptide uptake (murine splenocytes [1]; 0 hours) [%]","Percent Maximum (±SEM), peptide uptake (murine splenocytes [1]; 0.5 hours) [%]","Percent Maximum (±SEM), peptide uptake (murine splenocytes [1]; 1.0 hours) [%]","Percent Maximum (±SEM), peptide uptake (murine splenocytes [1]; 2.0 hours) [%]","Percent Maximum (±SEM), peptide uptake (murine splenocytes [1]; 4.0 hours) [%]","Percent Maximum (±SEM), peptide uptake (murine splenocytes [1]; 6.0 hours) [%]","Percent Maximum (±SEM), peptide uptake (murine splenocytes [1]; 24.0 hours) [%]","Time after which peptide uptake plateaued (murine splenocytes [1]; continuous incubation, 100 μM) [h]","Time of half-maximal peptide uptake (murine splenocytes [1]; continuous incubation, 100 μM) [h]",Half-life of intracellular peptide (murine splenocytes [2]),"Percent Maximum (±STD), intracellular STAT-6-IP (murine splenocytes [3]; 0.5 hours after 4 hours loading at 100 μM) [%]","Percent Maximum (±STD), intracellular STAT-6-IP (murine splenocytes [3]; 1.0 hours after 4 hours loading at 100 μM) [%]","Percent Maximum (±STD), intracellular STAT-6-IP (murine splenocytes [3]; 4.0 hours after 4 hours loading at 100 μM) [%]","Time peptide remained in the cells (murine splenocytes [3]; 4 hours loading at 100 μM, washed, trypsinized)","Percent Maximum (±STD), intracellular STAT-6-IP (murine splenocytes [3]; 6.0 hours after 4 hours loading at 100 μM) [%]","Percent Maximum (±STD), intracellular STAT-6-IP (murine splenocytes [3]; 8.0 hours after 4 hours loading at 100 μM) [%]","Percent Maximum (±STD), intracellular STAT-6-IP (murine splenocytes [3]; 24.0 hours after 4 hours loading at 100 μM) [%]",half-life at 100 μM [4] [h]
"FITC-PTD4: FITC-conjugated PTD4 protein transduction domain peptide (PTD4: Tyr-Ala-Arg-Ala-Ala-Ala-Arg-Gln-Ala-Arg-Ala; SEQ ID NO:6) (YARAAARQARA; not fully specified (N-terminus); printed as Tyr-Ala-Arg-Ala-Ala-Ala-Arg-Gln-Ala-Arg-Ala; also: FITC label, position not given here)",4.16 ± 0.53,31.2 ± 4.35,46.57 ± 6.63,69.70 ± 8.60,72.86 ± 8.51,76.71 ± 7.58,78.49 ± 14.11,4 to 6,1,approximately four,,,,,,,,
"CC(C)[C@H](NC(=O)[C@H](Cc1ccc(OP(=O)(O)O)cc1)NC(=O)CNC(=O)[C@H](CCCNC(=N)N)NC(=O)CNC(=O)[C@H](C)NC(=O)[C@H](CCCNC(=N)N)NC(=O)[C@H](C)NC(=O)[C@H](CCC(N)=O)NC(=O)[C@H](CCCNC(=N)N)NC(=O)[C@H](C)NC(=O)[C@H](C)NC(=O)[C@H](C)NC(=O)[C@H](CCCNC(=N)N)NC(=O)[C@H](C)NC(=O)[C@@H](N)Cc1ccc(O)cc1)C(=O)N[C@@H](CO)C(=O)N[C@H](C(=O)N[C@H](C(=O)O)[C@@H](C)O)[C@@H](C)O [STAT-6-IP, Tyr-Ala-Arg-Ala-Ala-Ala-Arg-Gln-Ala-Arg-Ala-Gly-Arg-Gly-Tyr*-Val-Ser-Thr-Thr] (H-YARAAARQARAGRG[pY]VSTT-OH; N-terminus and C-terminus assumed)",,,,,,,,,,,100.00 ± 0.00,93.69 ± 17.14,68.33 ± 17.42,up to 24 hours,66.56 ± 15.04,46.47 ± 15.98,38.50 ± 51.74,~8
